Where a chain is given by its changes, count along the chain named.

This is an account of results in patent US20210332115A1 (Sanofi, published 2021).

First the molecules themselves.
B1: VH1/Vκ2 (antibody, V domains shown)
VH: EVQLVESGGGLVKPGGSLRLSCAASGFTFSNYAMSWVRQAPGKGLEWVATISNRGSYTYYPDSVKGRFTISRDNAKNSLYLQMSSLRSEDTALYYCARERPMDYWGQGTSVTVSS
VL: DIVMTQSPSTLSASVGDRVTITCKASQDVGTAVAWYQQKPGQPPKLLIYWASTRHTGVPDRFTGSGSGTDFTLTISSLQAEDFAVYFCHQHSSNPLTFGQGTKLEIK
B2: VH1/Vκ0 (control) (antibody, V domains shown)
VH: B1 VH
VL: DIVMTQSHKFMSTSVGDRVSITCKASQDVGTAVAWYQQKPGQSPKLLIYWASTRHTGVPDRFTGSGSGTDFTLTITNVQSEDLAVYFCHQHSSNPLTFGAGTKLELK
B3: VH2/Vκ3 (antibody, V domains shown)
VH: B1 VH with S84N, S88A, S110L
VL: B1 VL with V3Q, T63S
B4: VH2/Vκ1 (antibody, V domains shown)
VH: B1 VH with S84N, S88A, S110L
VL: B1 VL with T10F, A80S
B5: VH3/Vκ4 (antibody, V domains shown)
VH: B1 VH with P61A, S84N, S88A, S110L
VL: B1 VL with V3Q, K24R, T63S, F87Y
B6: VH2/Vκ2 (antibody, V domains shown)
VH: B1 VH with S84N, S88A, S110L
VL: B1 VL
B7: VH3/Vκ3 (antibody, V domains shown)
VH: B1 VH with P61A, S84N, S88A, S110L
VL: B1 VL with V3Q, T63S
B8: VH0/Vκ1 (control) (antibody, V domains shown)
VH: B1 VH with G10A, R19K, A40T, G42E, G44R, S78T
VL: B1 VL with T10F, A80S
B9: VH2/Vκ5 (antibody, V domains shown)
VH: B1 VH with S84N, S88A, S110L
VL: B1 VL with V3Q, K24R, T63S, V85T, F87Y
B10: VH3/Vκ1 (antibody, V domains shown)
VH: B1 VH with P61A, S84N, S88A, S110L
VL: B1 VL with T10F, A80S
B11: VH3/Vκ5 (antibody, V domains shown)
VH: B1 VH with P61A, S84N, S88A, S110L
VL: B1 VL with V3Q, K24R, T63S, V85T, F87Y
B12: VH2/Vκ4 (antibody, V domains shown)
VH: B1 VH with S84N, S88A, S110L
VL: B1 VL with V3Q, K24R, T63S, F87Y
B13: VH3/Vκ2 (antibody, V domains shown)
VH: B1 VH with P61A, S84N, S88A, S110L
VL: B1 VL
B14: VH1/Vκ3 (antibody, V domains shown)
VH: B1 VH
VL: B1 VL with V3Q, T63S
B15: VH1/Vκ4 (antibody, V domains shown)
VH: B1 VH
VL: B1 VL with V3Q, K24R, T63S, F87Y
B16: VH1/Vκ5 (antibody, V domains shown)
VH: B1 VH
VL: B1 VL with V3Q, K24R, T63S, V85T, F87Y
B17: VH1/Vκ1 (antibody, V domains shown)
VH: B1 VH
VL: B1 VL with T10F, A80S
B18: VH0/Vκ6 (antibody, V domains shown)
VH: B1 VH with G10A, R19K, A40T, G42E, G44R, S78T
VL: B1 VL with T10F, Q42K, P43A, A80S
notes: Control antibody of the redesign round; cloned into the appropriate expression vector (IgG4v1 and kappa were used in the first round), HEK EBNA supernatant
B19: VH0/Vκ3 (antibody, V domains shown)
VH: B1 VH with G10A, R19K, A40T, G42E, G44R, S78T
VL: B1 VL with V3Q, T63S
notes: constant regions not restated, the humanisation used IgG4v1 heavy chain and kappa light chain vectors
B20: VH0/Vκ7 (antibody, V domains shown)
VH: B1 VH with G10A, R19K, A40T, G42E, G44R, S78T
VL: B1 VL with V3Q, Q42K, P43A, T63S
notes: as for B18

T1 sequence (P00751 260-764 limits assumed): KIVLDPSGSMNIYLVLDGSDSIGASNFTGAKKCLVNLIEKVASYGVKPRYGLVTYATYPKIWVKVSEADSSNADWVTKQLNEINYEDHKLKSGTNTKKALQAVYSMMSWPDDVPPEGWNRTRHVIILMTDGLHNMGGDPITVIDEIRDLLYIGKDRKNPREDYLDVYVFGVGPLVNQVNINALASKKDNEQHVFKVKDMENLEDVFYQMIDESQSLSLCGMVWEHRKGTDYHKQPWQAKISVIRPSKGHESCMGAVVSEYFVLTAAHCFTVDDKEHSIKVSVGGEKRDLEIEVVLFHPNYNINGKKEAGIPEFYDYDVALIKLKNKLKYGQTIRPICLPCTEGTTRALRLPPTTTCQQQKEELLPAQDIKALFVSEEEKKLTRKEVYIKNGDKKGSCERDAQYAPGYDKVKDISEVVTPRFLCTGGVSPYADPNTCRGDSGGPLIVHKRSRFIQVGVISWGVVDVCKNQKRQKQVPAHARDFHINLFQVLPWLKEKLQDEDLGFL

The first assay addresses T1, Homo sapiens factor Bb protein (human, UniProt P00751 260-764).
T1 construct: Bought from CompTech (A155); also called complement factor Bb; human factor Bb
As to the kind of experiment: SPR single cycle kinetics, IgG on Protein A chip, factor Bb analyte. As to the method:
(§1) In order to assess the binding of all humanized variants, single cycle kinetic analysis was performed on supernatants from transfected cell cultures. […] All single cycle kinetic experiments were run at 25° C. with HBS-P+running buffer (pH 7. 4) (GE Healthcare, Little Chalfont, UK).
(§2) Antibodies were diluted in running buffer to a final concentration of 1 μg/ml, based on concentrations assessed by ELISA titer. At the start of each cycle, antibodies were loaded onto Fc2, Fc3 and Fc4 of the Protein A chip (GE Healthcare, Little Chalfont, UK). IgGs were captured at a flow rate of 10 μl/min to give an immobilization level (RL) of ˜63 RU, the theoretical value to obtain an Rmax of ˜50 RU. The surface was then allowed to stabilize. Single cycle kinetic data was obtained with factor Bb (CompTech, Tyler, USA) as the analyte at a flow rate of 30 μl/min to minimize any potential mass transport limitations. Multiple repeats with the reference chimeric antibody were performed to check the stability of the surface and analyte over the kinetic cycles. The signal from the reference channel Fc1 (no antibody) was subtracted from that of Fc2, Fc3 and Fc4 to correct for differences in non-specific binding to a reference surface. A four point, two-fold dilution range from 0. 78 nM to 6. 25 nM factor Bb without regeneration between each concentration was used. The association phase for the four injections of increasing concentrations of factor Bb was monitored for 200 seconds each time and a single dissociation phase was measured for 200 seconds following the last injection of factor Bb. Regeneration of the Protein A surface was conducted using two injections of 10 mM glycine-HCL pH 1. 5.
(§3) The sensorgrams and fitted data for the single cycle kinetics are shown in FIGS. 1A-1D and the kinetic parameters measured for the interaction of factor Bb with each antibody are shown in Table 7. The relative KD was calculated by dividing the KD of the VH0/Vκ0 reference antibody by that of the humanized variant assayed in the same experiment.
For B1, the dissociation constant (Kd) was 5.22 nM, the koff was 0.00251 s⁻¹ and the kon was 481000 M⁻¹ s⁻¹.

With B2, the Kd was found to be 3.09 nM, the koff turned out to be 0.00116 s⁻¹ and the kon was 376000 M⁻¹ s⁻¹.

Consider B3, for which the Kd stood at 12.2 nM, the koff turned out to be 0.00307 s⁻¹ and the kon is 252000 M⁻¹ s⁻¹.

In the case of B4, the Kd was 20.7 nM, the koff came out at 0.00373 s⁻¹ and the kon turned out to be 180000 M⁻¹ s⁻¹.

On to B5, for which the Kd came to 17.3 nM, the koff stood at 0.0046 s⁻¹ and the kon amounted to 267000 M⁻¹ s⁻¹.

Molecule B6 yielded a Kd of 13.9 nM, a koff of 0.00326 s⁻¹ and a kon of 234000 M⁻¹ s⁻¹.

Molecule B7 came in with a Kd of 14.9 nM, a koff of 0.00329 s⁻¹ and a kon of 220000 M⁻¹ s⁻¹.

Consider B8, for which the dissociation constant (Kd) was determined as 2.68 nM, the koff came out at 0.00157 s⁻¹ and the kon was determined as 586000 M⁻¹ s⁻¹.

In the case of B9, the Kd came to 16.6 nM, the koff was determined as 0.00375 s⁻¹ and the kon was determined as 225000 M⁻¹ s⁻¹.

In turn, B10 returned a Kd of 13.9 nM, a koff of 0.00404 s⁻¹ and a kon of 291000 M⁻¹ s⁻¹.

Regarding B11, binding was characterised by a dissociation constant (Kd) of 15.8 nM, the koff is 0.00451 s⁻¹ and the kon amounted to 285000 M⁻¹ s⁻¹.

Take B12: the Kd worked out at 10.9 nM, the koff turned out to be 0.00368 s⁻¹ and the kon came to 339000 M⁻¹ s⁻¹.

As for B13, the affinity, expressed as Kd, was 16 nM; the koff came to 0.00377 s⁻¹; the kon was 236000 M⁻¹ s⁻¹.

For the molecule B14, the Kd amounted to 3.9 nM, the koff was found to be 0.00263 s⁻¹ and the kon is 675000 M⁻¹ s⁻¹.

The molecule B15 returned an equilibrium dissociation constant (Kd) of 6.52 nM, a koff of 0.00294 s⁻¹ and an on-rate constant (kon) of 451000 M⁻¹ s⁻¹.

Take B16: the Kd worked out at 8.96 nM, the koff was found to be 0.00201 s⁻¹ and the kon came out at 225000 M⁻¹ s⁻¹.

B17: the affinity, expressed as Kd, was 5.01 nM; the koff amounted to 0.00287 s⁻¹; the kon was determined as 574000 M⁻¹ s⁻¹.

Another assay concerns the target T1, Homo sapiens factor Bb protein. Described as above. This is another data set of the same source. As to the method: as §1, §2
Single cycle kinetics using cell culture supernatants were performed as described above.
In the case of B18, the dissociation constant Kd worked out at 2.37 nM, the koff came to 0.00126 s⁻¹ and the kon came out at 534000 M⁻¹ s⁻¹.

Consider B19, for which the Kd is 2.27 nM, the koff was 0.00128 s⁻¹ and the kon turned out to be 563000 M⁻¹ s⁻¹.

Regarding B20, the dissociation constant (Kd) came out at 2.11 nM, the koff is 0.00105 s⁻¹ and the on-rate (kon) was 496000 M⁻¹ s⁻¹.

Another assay shares this target. Nature of the assay: SPR single cycle kinetics; ratio against VH0/Vκ0. As to the method:
as §1, §2, §3
Take B1: the “Relative KD” value is 2.97.

For the molecule B2, the “Relative KD” value was determined as 1.76.

For B3, the “Relative KD” value came out at 6.93.

Take B4: the “Relative KD” value is 11.8.

With B5, the “Relative KD” value stood at 9.83.

On to B6, for which the “Relative KD” value came out at 7.9.

Turning to B7, the “Relative KD” value worked out at 8.47.

For B8, the “Relative KD” value came to 1.52.

On to B9, for which the “Relative KD” value came out at 9.43.

Consider B10, for which the “Relative KD” value worked out at 7.9.

On to B11, for which the “Relative KD” value amounted to 8.98.

Consider B12, for which the “Relative KD” value was 6.19.

Regarding B13, the “Relative KD” value was found to be 9.09.

On to B14, for which the “Relative KD” value is 2.22.

For the molecule B15, the “Relative KD” value was found to be 3.7.

Consider B16, for which the “Relative KD” value turned out to be 5.09.

With B17, the “Relative KD” value is 2.85.

The next assay has the same target. Nature of the assay: SPR single cycle kinetics; ratio against VH0/Vκ0. The source holds these as a separate data set. As to the method: All single cycle kinetic experiments were run at 25° C. with HBS-P+running buffer (pH 7. 4) (GE Healthcare, Little Chalfont, UK).
as §2
Single cycle kinetics using cell culture supernatants were performed as described above. […] The relative KD was calculated by dividing the KD of the VH0/Vκ0 reference antibody by that of the humanized variant assayed in the same experiment.
In the case of B18, the “Relative KD” value was 1.34.

Turning to B19, the “Relative KD” value amounted to 1.28.

Turning to B20, the “Relative KD” value was determined as 1.19.

The term Kd denotes the equilibrium constant for the complex coming apart. Lower therefore signals tighter binding. Usually koff stands for the rate constant with which the complex falls apart. By kon is commonly meant the second-order rate constant of association. Lower therefore signals slower complex formation.
